The target of this experiment is chicken F-actin (chicken) (UniProt P68139). In words: co-sedimentation.

pKd: −log10 of the molar value.

For “Drosophila indirect flight muscle myosin isoform (IFI) subfragment-1 (S1), S532P mutant (domain or fragment)”, the negative-log Kd (pKd) is 5.70. As for “Drosophila indirect flight muscle myosin isoform (IFI) subfragment-1 (S1), wild-type control (domain or fragment)”, the pKd is 5.90.
